Laboratory results from patent US20190375786A1, “STABLE PEPTIDES AND METHODS OF USE THEREOF” (Fred Hutchinson Cancer Research Center, priority 2016, published 2019).

Key:
[1] = Resistance to reduction by DTT, RP-HPLC; format: physicochemical; conditions: for Resistance to DTT Reduction (10 mM): 10 mM DTT in PBS, room temperature, 30 minutes, HPLC peak vs untreated peptide
Procedure: Peptides were first suspended in 500 ul of ddH2O to a stock concentration of 2 mg/ml. Reactions were prepared by adding 12.5 ug of peptide from the stock solution to a 10 mM solution of DTT in PBS and allowed to incubate at room temperature for 30 minutes. Other reactions were prepared with 12.5 μg peptide with or without 500 U/ml pepsin in simulated gastric fluid (SGF; pH 1.05; […] sodium chloride in 0.7% (v/v) hydrochloric acid) and were incubated for 30 minutes at 37.5° C. Some reactions were quenched with a final concentration of 100 mM Tris base and 10 mM dithiothreitol (DTT). Some reactions were performed in all of the above components, including simulated gastric fluid, pepsin, Tris, and DTT (referred to as SPTD). Reversed phase HPLC (RP-HPLC) was run on samples using an Agilent 1260 HPLC equipped with a C-18 Poroshell 120B column. Sample were analyzed by a gradient method with a mobile phase of Solvent A (water with 0.1% TFA) and Solvent B (acetonitrile with 0.1% TFA). Solvent B was ramped up from 5%-45% of the mobile phase over a period of 10 minutes. Peptides were detected at an absorbance of 214 nm and 280 nm.
(§1) Peptides were first suspended in 500 μl of ddH2O to a stock concentration of 2 mg/ml. Reactions were prepared by adding 12.5 μg of peptide from the stock solution to a 10 mM solution of DTT in PBS and allowed to incubate at room temperature for 30 minutes. Other reactions were prepared with 12.5 μg peptide and 500 U/ml trypsin in 25 mM Tris/75 mM NaCl buffer (pH 7.0) and incubated for 30 minutes at 37.5° C. These reactions were then quenched with 5 μg of soybean trypsin inhibitor (I) and, in some cases, 10 mM dithiothreitol (DTT). Reversed phase HPLC (RP-HPLC) was run on samples using an Agilent 1260 HPLC equipped with a C-18 Poroshell 120B column. Sample were analyzed by a gradient method with a mobile phase of Solvent A (water with 0.1% TFA) and Solvent B (acetonitrile with 0.1% TFA). Solvent B was ramped up from 5%-45% of the mobile phase over a period of 10 minutes. For testing pepsin digestion resistance, reactions were prepared with 12.5 μg peptide with or without 500 U/ml pepsin in simulated gastric fluid (SGF; pH 1.05; […] sodium chloride in 0.7% (v/v) hydrochloric acid) and were incubated for 30 minutes at 37.5° C. For testing temperature resistance, peptides were incubated at 70° C., 75° C., or 100° C. for one hour in 0.5 mM PBS, pelleted, and then the supernatant was analyzed by HPLC.
This example illustrates peptide stability in biological conditions including in the presence of reducing agents, proteases, oxidative conditions, acidic conditions, and simulated gastric fluids. […] Various peptides were suspended in 500 μl of ddH2O at a stock concentration of 2 mg/ml. This was then diluted in accord with the reaction conditions to prevent adverse buffering effects. Reactions were prepared with 12.5 μg peptide dissolved in solution and, in some samples, additionally suspended in a 10 mM solution of DTT, simulated gastric fluid (pH 1.05; […] sodium chloride in 0.7% (v/v) hydrochloric acid), 500 U pepsin (5000 U/ml pepsin), 50 U trypsin (500 U/ml trypsin) with 1 mg/ml inhibitor in PBS, or a combination of any of these conditions. All protease reactions were incubated for 30 min at room temperature and then quenched. Pepsin reactions were quenched by adding Tris base to a final concentration of 0.075 M. Trypsin reactions were quenched by adding excess soybean trypsin inhibitor. RP-HPLC was then run on samples using an Agilent 1260 HPLC equipped with a C-18 Poroshell 120B column. Sample were analyzed by a gradient method with a mobile phase of Solvent A (water with 0.1% TFA) and Solvent B (acetonitrile with 0.1% TFA). Solvent B was ramped up from 5%-45% of the mobile phase over a period of 10 minutes.
FIG. 18 illustrates high performance liquid chromatograph (HPLC) traces of peptides in non-reducing (NR) conditions (solid trace) or in 10 mM DTT reducing (R) conditions (dashed trace). […]

trypsin = trypsin (Sus scrofa, UniProt P00761); assay: Trypsin digestion resistance of soluble peptide, RP-HPLC; format: in vitro ADME, porcine; parameters: purchased Sigma Aldrich 6567; conditions: 30 minutes at 37.5° C.; for Resistance to Trypsin (500 U/ml): 500 U/ml trypsin, HPLC peak vs untreated peptide
How it was run: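 Read-out was RP-HPLC (C-18, water/acetonitrile with 0.1% TFA, 5-45% over 10 min) of peptide left after trypsin treatment. Digest: 12.5 μg peptide, 500 U/ml porcine trypsin, PBS, 37.5° C for 30 min, stopped by soybean trypsin inhibitor; samples then reduced (10 mM DTT) or left non-reduced.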

pepsin = pepsin (Sus scrofa, UniProt P00791); assay: Pepsin digestion resistance in simulated gastric fluid, RP-HPLC; format: in vitro ADME, porcine; parameters: purchased Sigma Aldrich P7012; conditions: 500 U/ml pepsin in SGF pH 1.05, 30 minutes at 37.5° C.; HPLC peak vs untreated peptide
How it was run: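 Digestion resistance read by reversed-phase HPLC (C-18, 0.1% TFA, 5–45% acetonitrile over 10 min; 214/280 nm) after 12.5 μg peptide spent 30 min at 37.5 °C in pH 1.05 simulated gastric fluid, with or without 500 U/ml pepsin. Some samples quenched with Tris base and DTT.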

[2] = Resistance to elevated temperature, HPLC; format: physicochemical; conditions: HPLC peak vs untreated peptide; for Resistance to Temperature (75° C.): 75° C. for one hour; for Resistance to Temperature (100° C.): 100° C. for one hour
Procedure: as §1
This example illustrates peptide stability at high temperatures. Peptides were first suspended in 500 μl of ddH2O to a stock concentration of 2 mg/ml. Reactions were prepared by adding 6.25 μl of peptide from the stock solution with 95 μl ddH2O and incubated at room temperature, 70° C., or 100° C. for one hour in a Thermocycler. RP-HPLC was then run on samples using an Agilent 1260 HPLC equipped with a C-18 Poroshell 120B column. Sample were analyzed by a gradient method with a mobile phase of Solvent A (water with 0.1% TFA) and Solvent B (acetonitrile with 0.1% TFA). Solvent B was ramped up from 5%-45% of the mobile phase over a period of 10 minutes.

pepsin, sequence (P00791 60-385): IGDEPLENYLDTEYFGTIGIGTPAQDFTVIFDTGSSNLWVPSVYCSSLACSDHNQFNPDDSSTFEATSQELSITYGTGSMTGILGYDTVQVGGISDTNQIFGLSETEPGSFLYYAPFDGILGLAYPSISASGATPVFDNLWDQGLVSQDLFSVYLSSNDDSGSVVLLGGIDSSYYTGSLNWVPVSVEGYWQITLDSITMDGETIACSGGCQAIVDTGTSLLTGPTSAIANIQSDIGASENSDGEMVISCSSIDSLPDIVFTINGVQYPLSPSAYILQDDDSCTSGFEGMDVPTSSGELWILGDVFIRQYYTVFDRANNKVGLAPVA
trypsin, sequence (P00761 9-231): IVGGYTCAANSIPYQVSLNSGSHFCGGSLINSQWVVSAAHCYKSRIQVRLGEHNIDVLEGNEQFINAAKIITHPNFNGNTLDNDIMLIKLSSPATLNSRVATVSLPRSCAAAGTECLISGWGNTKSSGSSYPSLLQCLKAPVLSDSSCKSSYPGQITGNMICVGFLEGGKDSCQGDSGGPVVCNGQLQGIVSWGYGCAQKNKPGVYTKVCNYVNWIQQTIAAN

Substance: 1 (GSDCLPHLRRCRADNDCCGRRCRRRGTNAERRCR) [compound 1]
- Resistance to DTT Reduction (10 mM) [1]: Low (A peptide classified as low indicates that the majority (over 75%) of the HPLC peak of the treated peptide disappeared as compared to the HPLC peak of the untreated peptide)
- Resistance to Trypsin (500 U/ml) (trypsin): Moderate (A peptide classified as medium indicates that about half (between 25% and 75%) of the HPLC peak of the treated peptide disappeared as compared to the HPLC peak of the untreated peptide)

Substance: 4 (GSGDCLPHLKRCKENNDCCSKKCKRRGANPEKRCR) [compound 4]
- Resistance to Pepsin (500 U/ml) (pepsin): High (A peptide classified as high indicates that the majority (at least 75%) of the HPLC peak of the treated peptide is still present as compared to the HPLC peak of the untreated peptide)
- Resistance to DTT Reduction (10 mM) [1]: Low (A peptide classified as low indicates that the majority (over 75%) of the HPLC peak of the treated peptide disappeared as compared to the HPLC peak of the untreated peptide)
- Resistance to Trypsin (500 U/ml) (trypsin): Low (A peptide classified as low indicates that the majority (over 75%) of the HPLC peak of the treated peptide disappeared as compared to the HPLC peak of the untreated peptide)
- Resistance to Temperature (75° C.) [2]: High (A peptide classified as high indicates that the majority (at least 75%) of the HPLC peak of the treated peptide is still present as compared to the HPLC peak of the untreated peptide)
- Resistance to Temperature (100° C.) [2]: Low (A peptide classified as low indicates that the majority (over 75%) of the HPLC peak of the treated peptide disappeared as compared to the HPLC peak of the untreated peptide)

Substance: 7 (GSDRDSCIDKSRCSKYGYYQECQDCCKKAGHNGGTCMFFKCKCA) [compound 7]
- Resistance to Pepsin (500 U/ml) (pepsin): High (A peptide classified as high indicates that the majority (at least 75%) of the HPLC peak of the treated peptide is still present as compared to the HPLC peak of the untreated peptide)
- Resistance to DTT Reduction (10 mM) [1]: Low (A peptide classified as low indicates that the majority (over 75%) of the HPLC peak of the treated peptide disappeared as compared to the HPLC peak of the untreated peptide)
- Resistance to Trypsin (500 U/ml) (trypsin): Low (A peptide classified as low indicates that the majority (over 75%) of the HPLC peak of the treated peptide disappeared as compared to the HPLC peak of the untreated peptide)
- Resistance to Temperature (75° C.) [2]: High (A peptide classified as high indicates that the majority (at least 75%) of the HPLC peak of the treated peptide is still present as compared to the HPLC peak of the untreated peptide)
- Resistance to Temperature (100° C.) [2]: High (A peptide classified as high indicates that the majority (at least 75%) of the HPLC peak of the treated peptide is still present as compared to the HPLC peak of the untreated peptide)

Substance: 9 (GSQFCGTNGKPCVNGQCCGALRCVVTYHYADGVCLKMNP) [compound 9]
- Resistance to Pepsin (500 U/ml) (pepsin): High (A peptide classified as high indicates that the majority (at least 75%) of the HPLC peak of the treated peptide is still present as compared to the HPLC peak of the untreated peptide)
- Resistance to DTT Reduction (10 mM) [1]: Low (A peptide classified as low indicates that the majority (over 75%) of the HPLC peak of the treated peptide disappeared as compared to the HPLC peak of the untreated peptide)
- Resistance to Trypsin (500 U/ml) (trypsin): Moderate (A peptide classified as medium indicates that about half (between 25% and 75%) of the HPLC peak of the treated peptide disappeared as compared to the HPLC peak of the untreated peptide)
- Resistance to Temperature (75° C.) [2]: High (A peptide classified as high indicates that the majority (at least 75%) of the HPLC peak of the treated peptide is still present as compared to the HPLC peak of the untreated peptide)
- Resistance to Temperature (100° C.) [2]: Low (A peptide classified as low indicates that the majority (over 75%) of the HPLC peak of the treated peptide disappeared as compared to the HPLC peak of the untreated peptide)

Substance: 26 (GSVGCEECPMHCKGKNANPTCDDGVCNCNV) [compound 26]
- Resistance to DTT Reduction (10 mM) [1]: Low (A peptide classified as low indicates that the majority (over 75%) of the HPLC peak of the treated peptide disappeared as compared to the HPLC peak of the untreated peptide)
- Resistance to Trypsin (500 U/ml) (trypsin): Moderate (A peptide classified as medium indicates that about half (between 25% and 75%) of the HPLC peak of the treated peptide disappeared as compared to the HPLC peak of the untreated peptide)

Substance: 40 (GSPDEYIERAKECCKKGDIQCCLRYFEESGDPNVMLICAFCP) [compound 40]
- Resistance to DTT Reduction (10 mM) [1]: Low (A peptide classified as low indicates that the majority (over 75%) of the HPLC peak of the treated peptide disappeared as compared to the HPLC peak of the untreated peptide)

Substance: 41 (GSPDEYIERAKECCKKGDIQCCLRYFEESGDPNVMLICLACP) [compound 41]
- Resistance to DTT Reduction (10 mM) [1]: Low (A peptide classified as low indicates that the majority (over 75%) of the HPLC peak of the treated peptide disappeared as compared to the HPLC peak of the untreated peptide)

Substance: 42 (GSFGLYDNQCATSDACSAICKYWTGSGQGKCQNNQCRCY) [compound 42]
- Resistance to DTT Reduction (10 mM) [1]: Low (A peptide classified as low indicates that the majority (over 75%) of the HPLC peak of the treated peptide disappeared as compared to the HPLC peak of the untreated peptide)

Substance: 44 (GSPDEYIERAKECCKKQDIQCCLRIFDESGDPNVMLICLFCW) [compound 44]
- Resistance to DTT Reduction (10 mM) [1]: Moderate (A peptide classified as medium indicates that about half (between 25% and 75%) of the HPLC peak of the treated peptide disappeared as compared to the HPLC peak of the untreated peptide)

Substance: GSDCLPHLRRCRADNDCCGRRCRRRGTNAERRCR [SEQ ID NO: 1]
- resistance to reduction by DTT (in words) ([1]; 10 mM DTT, HPLC vs non-reduced peptide): not resistant
- resistance to trypsin digestion (in words) (trypsin; 500 U/ml trypsin (50 U per reaction), HPLC): partially resistant
